Experimental data taken from publication PMC7229837, “Molecular architecture of the DNA-binding sites of the P-loop ATPases MipZ and ParA from Caulobacter crescentus”.
Numbering of substitutions follows the chain as printed.

What was measured:
MipZ K13A = target: T1, MipZ K13A (Caulobacter crescentus, UniProt Q9A6C9 1-278, K13A); test: MST; low-affinity group, KD >> 10 uM; EMSA: 10 mM HEPES/NaOH pH 7.2, 150 mM NaCl, 10 mM MgCl2, 0.05% Tween 20, 0.46 mM ATPgS, room temp; BLI: 50 mM HEPES/NaOH pH 7.2, 50 mM NaCl, 5 mM MgCl2, 0.1 mM; conditions: protein: recombinant; tags: C-terminal His6 (pET21a); label: Cy3 (5') on strand 1; blunt
T1 sequence: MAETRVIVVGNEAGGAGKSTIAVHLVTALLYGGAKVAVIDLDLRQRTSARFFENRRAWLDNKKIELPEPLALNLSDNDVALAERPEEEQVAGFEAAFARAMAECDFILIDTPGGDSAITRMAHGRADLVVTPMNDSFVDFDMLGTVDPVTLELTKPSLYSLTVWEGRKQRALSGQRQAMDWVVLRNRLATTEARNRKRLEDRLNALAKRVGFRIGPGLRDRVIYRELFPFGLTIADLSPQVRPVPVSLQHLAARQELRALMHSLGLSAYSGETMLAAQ

MipZ R219A = target: T2, MipZ R219A (Caulobacter crescentus, UniProt Q9A6C9 1-278, R219A); test: as above; conditions: protein: recombinant; tags: C-terminal His6 (pET21a); chain copies: 2; label: Cy3 (5') on strand 1; blunt
T2 sequence: T1 sequence with A13K, R219A

MipZ R242A = target: T3, MipZ R242A (Caulobacter crescentus, UniProt Q9A6C9 1-278, R242A); test: as above; conditions: protein: recombinant; tags: C-terminal His6 (pET21a); chain copies: 2; label: Cy3 (5') on strand 1; blunt
T3 sequence: T1 sequence with A13K, R242A

MipZ R198A = target: T4, MipZ R198A (Caulobacter crescentus, UniProt Q9A6C9 1-278, R198A); test: MST; hardly any binding; EMSA: 10 mM HEPES/NaOH pH 7.2, 150 mM NaCl, 10 mM MgCl2, 0.05% Tween 20, 0.46 mM ATPgS, room temp; BLI: 50 mM HEPES/NaOH pH 7.2, 50 mM NaCl, 5 mM MgCl2, 0.1 mM; conditions: protein: recombinant; tags: C-terminal His6 (pET21a); chain copies: 2; label: Cy3 (5') on strand 1; blunt
T4 sequence: T1 sequence with A13K, R198A

MipZ R194A = target: T5, MipZ R194A (Caulobacter crescentus, UniProt Q9A6C9 1-278, R194A); test: as above; conditions: protein: recombinant; tags: C-terminal His6 (pET21a); chain copies: 2; label: Cy3 (5') on strand 1; blunt
T5 sequence: T1 sequence with A13K, R194A

MipZ R221A = target: T6, MipZ R221A (Caulobacter crescentus, UniProt Q9A6C9 1-278, R221A); test: as above; conditions: protein: recombinant; tags: C-terminal His6 (pET21a); chain copies: 2; label: Cy3 (5') on strand 1; blunt
T6 sequence: T1 sequence with A13K, R221A

B1: rand-Cy3/rand-rev 26 bp (dsDNA)
DNA 1: GAGGCAGACTAGATCTTCTAGTTCGG
DNA 2: CCGAACTAGAAGATCTAGTCTGCCTC
For B1, the Kd (MipZ K13A) was > 10 µM, the Kd (MipZ R219A) was > 10 µM and the Kd (MipZ R242A) was > 10 µM. B1: no binding (MipZ R198A); no binding (MipZ R194A); no binding (MipZ R221A).
